Source: patent publication US20250011368A1, “DLL3 TARGETING PEPTIDES AND CONSTRUCTS THEREOF” (MARIANA ONCOLOGY INC., priority 2023, published 2025)
Numbered stars: 1 amine (or outer) side, 2 acyl side, 3 side chain; on linkers, the order of the positions; unused ones are H or OH. Bridge positions count the residues as written; N and C are the ends. Square brackets hold non-standard residues; d marks the D form. Peptide text beside a SMILES is read from it. * marks the point of attachment. Ala(piperidin-4-yl) = O=C([C@H](CC1CCN([*:3])CC1)N[*:1])[*:2]; DOTA = O=C(O)CN1CCN(CC(=O)O)CCN(CC(=O)*)CCN(CC(=O)O)CC1; Trp(5-F) = N[C@@H](Cc1c[nH]c2ccc(F)cc12)C(=O)O; Trp(7-aza) = N[C@@H](Cc1c[nH]c2ncccc12)C(=O)O; Pro(trans-4-F) = O=C(O)[C@@H]1C[C@@H](F)CN1; 2Nal = N[C@@H](Cc1ccc2ccccc2c1)C(=O)O; 4Pal = N[C@@H](Cc1ccncc1)C(=O)O; Cha = N[C@@H](CC1CCCCC1)C(=O)O

Legend:
SHP-77 tumors = assay: Ex vivo biodistribution of radiolabeled peptides in nude mice bearing SHP-77 tumors; details: [177Lu]Lu labelling, nude mice bearing SHP-77 tumors (n = 3), 24 hours post-injection
Summary of the method: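 Nude mice bearing SHP-77 xenografts (200-400 mm^3) or tumor-naïve mice (5-7 weeks) received an intravenous tail-vein bolus of [^177Lu]Lu-peptide and were euthanized at pre-set time points. Tissues were weighed and gamma-counted, with counts decay-corrected to injection time. Values are % IA/g per tissue from the injected activity of each mouse.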

CT26.DLL3 cells [1] = assay: Internalization (out of bound fraction) of [177Lu]Lu-test peptide, CT26.DLL3 cells; type: cell-based; details: 1 hour at 37° C., glycine pH 2.5 wash
Procedure: (§1) [^177Lu]LuCl3 was received from venders in HCl solution. For every mCi of [^177Lu]LuCl3 added to the reaction vial (1.5 mL Eppendorf vial), ammonium acetate buffer (0.2 M, pH 4.9, 100 μL, containing 1% w/v ascorbic acid and 6% v/v ethanol) and peptide conjugate (1 nmol). A peptide conjugate of the present disclosure is also referred to herein as a “chelator-peptide”. The pH of the solution was determined to be approximately 5 by using pH strips. The reaction vial was incubated at 80° C., 700 RPM for 17-20 minutes. A sample from the reaction was analyzed by RP-HPLC using an Agilent Infinity II 1260 HPLC to determine reaction completion and radiochemical purity of [^177Lu]Lu-chelator-peptide. HPLC conditions: Waters XBridge BEH C18 Column, 130 Å, 3.5 um, 4.6 mm×250 mm; mobile phase: Solvent A=water (with 0.1% formic acid), solvent B=acetonitrile (with 0.1% formic acid). Gradients: 25-45% B in 10 minutes, 45-65% B in 12 minutes, 65-90% in 6 minutes at a flow rate of 0.5 mL/minute. Required amounts of the product was formulated in 1% PBSA for cell studies.
(§2) The study was conducted using SHP-77, CT26.WT, and CT26.DLL3 cells (Table 7) Adherent cell studies: The cells were cultured in appropriate culture media (20 mL) in tissue culture treated T150 flasks at 37° C. and 5% CO2. Adherent cells were detached (60-70% confluent) using 5 mL Versene at 37° C. for 3 minutes. After confirming the viability using countess and count of detached cells using Trypan blue, the cells were centrifuged at 4° C. for 5 minutes (1,000 rpm). The cell pellet obtained was washed once with PBS and resuspended in 1% PBSA to obtain the desired cell concentration (5-25 million cells/mL).
(§3) Cell numbers used for the assay were in the range of 5 million cells/condition −25 million cells/condition.
(§4) Total uptake: Cells were incubated with 300 μL (0.8 μCi) of the incubation buffer (containing radiolabeled peptide [^177Lu] Lu-test peptide) for 1 hour at 37° C. (Table 8). Post incubation, the cells were pelleted and washed 2 times using cold PBS+1% BSA. The supernatant and washes were combined and counted together as “unbound fraction” in a gamma counter. The cells were then resuspended in 300 μL of 1% PBS+1% BSA and counted in the gamma counter as “bound fraction”.
Internalization: The resuspended cells in 300 μl of 1% PBSA and counted in the gamma counter as “bound fraction” were collected in 1.5 mL Eppendorf tube and pelleted. The pelleted cells were incubated with 300 μl of 50 mM Glycine pH=2.5 for 3 minutes and then pelleted discarding the supernatant. This process was repeated one more time. The pelleted cells were washed with 300 μl of cold 1% PBSA and then resuspended in 300 μl 0.3M NaOH. This was counted in the gamma counter as “internalized fraction”.
(§5) In these Tables, “A” represents %≤25; “B” represents 25<%≤50; “C” represents %>50.

SHP-77 cells = assay: Cell binding (total uptake) of [177Lu]Lu-test peptide, SHP-77 cells; type: cell-based; details: SHP77 cells, 1 hour at 37° C., bound fraction
Procedure: as §1, §2
Suspension cell studies: The cells were cultured in appropriate culture media (20 mL) in tissue culture treated T150 flasks at 37° C. and 5% CO2. After confirming the viability and count of detached cells using Trypan blue, the cells were centrifuged at 4° C. for 5 minutes (1,000 rpm). The cell pellet obtained was washed once with PBS and resuspended in 1% PBSA to obtain the desired cell concentration (5-25 million cells/mL).
as §3, §4, §5

CT26.DLL3 cells [2] = assay: Cell binding (total uptake) of [177Lu]Lu-test peptide, CT26.DLL3 cells; type: cell-based; details: 1 hour at 37° C.
Summary of the method: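 CT26.DLL3 cells (5–25 million/condition) in 1% PBSA incubated 1 h at 37°C with [177Lu]Lu-labelled peptide (0.8 μCi in 300 μL), radiolabelled at pH ~5, 80°C. Cells pelleted, washed twice with cold PBS+1% BSA; bound and unbound fractions gamma-counted, uptake binned as ≤25%, 25–50%, >50%.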

human DLL3 = molecular target: T1, human DLL3 (Homo sapiens, UniProt Q9NYJ7); assay: Affinity determination by Surface Plasmon Resonance (SPR); type: binding; details: 25° C., biotinylated human DLL3 immobilized on streptavidin sensor chip, 1:1 binding model; read-out: SPR KD
T1 sequence (Q9NYJ7 27-618): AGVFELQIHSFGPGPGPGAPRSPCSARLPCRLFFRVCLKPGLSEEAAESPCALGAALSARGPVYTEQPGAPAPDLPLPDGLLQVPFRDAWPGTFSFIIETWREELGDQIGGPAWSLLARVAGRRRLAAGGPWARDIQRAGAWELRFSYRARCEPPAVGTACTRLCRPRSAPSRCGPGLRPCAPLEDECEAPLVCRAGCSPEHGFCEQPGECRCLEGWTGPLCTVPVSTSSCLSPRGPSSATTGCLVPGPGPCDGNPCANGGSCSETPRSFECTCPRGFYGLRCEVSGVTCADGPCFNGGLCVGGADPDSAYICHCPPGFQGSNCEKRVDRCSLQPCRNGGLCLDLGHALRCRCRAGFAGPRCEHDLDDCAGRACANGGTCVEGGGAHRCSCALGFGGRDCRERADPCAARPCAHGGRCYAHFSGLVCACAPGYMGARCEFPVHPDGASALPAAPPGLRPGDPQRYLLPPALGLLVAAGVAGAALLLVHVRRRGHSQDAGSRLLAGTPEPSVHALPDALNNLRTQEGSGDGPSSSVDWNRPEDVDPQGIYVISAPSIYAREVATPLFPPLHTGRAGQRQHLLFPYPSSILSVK
Summary of the method: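 Biotinylated human DLL3 was captured on a streptavidin chip with a reference surface. Compounds at several concentrations were injected at 100 μL/minute in phosphate buffer (137 mM NaCl, 2.7 mM KCl, 0.05% P20, 2% DMSO). Affinity and kinetics came from 1:1 model fits of the sensorgrams.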

[3] = molecular target: DLL3 on CT26.DLL3 cells (Homo sapiens (Human)) (UniProt Q9NYJ7); assay: 177Lu-peptide bound to CT26.DLL3 cells, gamma counting; letter grade, key in paragraph 629
[4] = molecular target: T2, Biotinylated human DLL3 (Delta Like Canonical Notch Ligand 3) (human, UniProt Q9NYJ7 27-492, limits assumed, biotinylated (site not stated)); assay: SPR; letter grade, key in paragraph 614
T2 construct: also called Delta-like protein 3; biotinylated target ligand human DLL3
T2 sequence: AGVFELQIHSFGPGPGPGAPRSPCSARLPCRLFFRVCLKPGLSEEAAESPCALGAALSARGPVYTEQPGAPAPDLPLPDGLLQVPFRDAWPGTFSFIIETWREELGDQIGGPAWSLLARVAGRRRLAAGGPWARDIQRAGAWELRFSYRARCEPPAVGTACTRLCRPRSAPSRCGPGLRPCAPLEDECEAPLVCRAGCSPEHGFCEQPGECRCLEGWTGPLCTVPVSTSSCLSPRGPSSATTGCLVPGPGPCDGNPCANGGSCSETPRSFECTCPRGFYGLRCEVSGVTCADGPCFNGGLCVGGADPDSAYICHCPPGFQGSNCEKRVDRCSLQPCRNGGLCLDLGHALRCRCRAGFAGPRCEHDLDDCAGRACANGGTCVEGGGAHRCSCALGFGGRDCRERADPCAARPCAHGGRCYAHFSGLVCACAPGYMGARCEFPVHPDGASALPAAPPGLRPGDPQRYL
Procedure: Biotinylated target ligand human DLL3 was immobilized on a streptavidin sensor chip. A reference surface was set up for nonspecific binding and refractive index changes. For analysis of the kinetics of interactions, varying concentrations of samples were injected at a flow rate of 100 μL/minute using running buffer containing 20 mM phosphate buffer with 2.7 mM KCl, 137 mM NaCl, 0.05% Surfactant P20 and 2% DMSO. Sensorgram curves were fitted with 1:1 binding model, and affinity and kinetic parameters were obtained using Biacore Insight evaluation 4.0. software.

DLL3 on SHP-77 cells = molecular target: T3, DLL3 on SHP-77 cells (human, UniProt Q9NYJ7 27-618); assay: 177Lu-peptide bound to SHP-77 cells, gamma counting; letter grade, key in paragraph 629
T3 construct: SHP-77 cells are human-derived, non-engineered SCLC cells
T3 sequence: T1 sequence (Q9NYJ7 27-618)
Procedure: as §2
Total uptake: Cells were incubated with 300 μL (0.8 μCi) of the incubation buffer (containing radiolabeled peptide [¹⁷⁷Lu] Lu-test peptide) for 1 hour at 37° C. (Table 8). Post incubation, the cells were pelleted and washed 2 times using cold PBS+1% BSA. The supernatant and washes were combined and counted together as “unbound fraction” in a gamma counter. The cells were then resuspended in 300 μL of 1% PBS+1% BSA and counted in the gamma counter as “bound fraction”.

With CC[C@H](C)[C@H](NC(=O)[C@@H](NC(=O)[C@H](Cc1c[nH]c2ccccc12)NC(C)=O)[C@@H](C)O)C(=O)N[C@H]1CSSC[C@@H](C(=O)N[C@@H](Cc2c[nH]c3ccccc23)C(=O)N2CCC[C@H]2C(=O)N[C@H](CCCCNC(=O)CN2CCN(CC(=O)O)CCN(CC(=O)O)CCN(CC(=O)O)CC2)C(N)=O)NC(=O)[C@H](CC(=O)O)NC(=O)[C@H](Cc2cnc[nH]2)NC(=O)[C@H](Cc2ccc3ccccc3c2)NC(=O)[C@H](CC(N)=O)NC(=O)[C@H](CC(N)=O)NC1=O [compound 75, Ac-W-T-I-C(3)-N-N-(2Nal)-H-D-C(3)-W-P-[D-Lys(DOTA)]-NH2] (Ac-WTICNN[2Nal]HDCWP[dK](DOTA)-NH2; disulfide 4-10) the “kidney uptake (% IA/g)” value (SHP-77 tumors; kidney) was “D (% IA/g > 10 in kidney)”, the “tumor uptake (% IA/g)” value (SHP-77 tumors; tumor) was “A (0 < % IA/g ≤ 5 in tumor)” and the “% Internalization (out of bound fraction)” value (CT26.DLL3 cells [1]) was “B (25<%≤50)”. For the same molecule, the “% Binding” value (SHP-77 cells) was “A (%≤25)”, the “% Binding” value (CT26.DLL3 cells [2]) was “B (25<%≤50)” and the Kd (human DLL3) was 1 to 10 nM.

B1: [177Lu]Lu-labelled Cpd No. 245 (peptide)
peptide: Ac-[Trp(5-F)]T[Cha]CNN[2Nal]HDC[Trp(7-aza)][Pro(trans-4-F)][dK](DOTA)-NH2
modifications: disulfide 4-10; also: 177Lu complexed in the DOTA chelator
For B1, the % Binding [3] was under 25%.

B2: Cpd No. 451 (peptide)
peptide: Ac-WTICKN[2Nal]HDCWP[dK](DOTA)-NH2
modifications: disulfide 4-10
SMILES: CC[C@H](C)[C@H](NC(=O)[C@@H](NC(=O)[C@H](Cc1c[nH]c2ccccc12)NC(C)=O)[C@@H](C)O)C(=O)N[C@H]1CSSC[C@@H](C(=O)N[C@@H](Cc2c[nH]c3ccccc23)C(=O)N2CCC[C@H]2C(=O)N[C@H](CCCCNC(=O)CN2CCN(CC(=O)O)CCN(CC(=O)O)CCN(CC(=O)O)CC2)C(N)=O)NC(=O)[C@H](CC(=O)O)NC(=O)[C@H](Cc2c[nH]cn2)NC(=O)[C@H](Cc2ccc3ccccc3c2)NC(=O)[C@H](CC(N)=O)NC(=O)[C@H](CCCCN)NC1=O
For B2, the Kd [4] was at most 1 nM.

B3: Cpd No. 252 (peptide)
peptide: Ac-WTICNN[2Nal]HDCWP[dK]-NH2
modifications: disulfide 4-10; not fully specified (residue 13); printed as Ac-W-T-I-C(3)-N-N-(2Nal)-H-D-C(3)-W-P-{D-Lys[PEG8-D-Lys(DOTA)-PEG12-COCH2Ph-4Br]}-NH2, disulfide C(3)-C(3)
B3 gave a Kd [4] of at most 1 nM.

B4: [natLu]Lu-labelled Cpd No. 367 (peptide)
peptide: Ac-WTICNN[2Nal][4Pal]DCWP[dK](DOTA)-NH2
modifications: disulfide 4-10; also: natLu in the DOTA chelator
notes: * = [natLu]Lu-labelled peptide
B4 was tested, and the Kd [4] was at most 1 nM.

B5: Cpd No. 367 (peptide)
peptide: Ac-WTICNN[2Nal][4Pal]DCWP[dK](DOTA)-NH2
modifications: disulfide 4-10
SMILES: CC[C@H](C)[C@H](NC(=O)[C@@H](NC(=O)[C@H](Cc1c[nH]c2ccccc12)NC(C)=O)[C@@H](C)O)C(=O)N[C@H]1CSSC[C@@H](C(=O)N[C@@H](Cc2c[nH]c3ccccc23)C(=O)N2CCC[C@H]2C(=O)N[C@H](CCCCNC(=O)CN2CCN(CC(=O)O)CCN(CC(=O)O)CCN(CC(=O)O)CC2)C(N)=O)NC(=O)[C@H](CC(=O)O)NC(=O)[C@H](Cc2ccncc2)NC(=O)[C@H](Cc2ccc3ccccc3c2)NC(=O)[C@H](CC(N)=O)NC(=O)[C@H](CC(N)=O)NC1=O
B5 gave a Kd [4] of at most 1 nM.

B6: [177Lu]Lu-labelled Cpd No. 326 (peptide)
peptide: Ac-WTIC[Ala(piperidin-4-yl)]N[2Nal]KDCWP[dK](DOTA)-NH2
modifications: disulfide 4-10; not fully specified (residue 8); also: 177Lu chelated in DOTA
B6 showed a % Binding (DLL3 on SHP-77 cells) of under 25% and a % Binding [3] of under 25%.
